We go through 13 molecules from patent US20240018251A1 (BIOHENG THERAPEUTICS, published 2024).

T1: FITC labeled BCMA (acrobiosystem, Cat. No. BCA-HF254) (UniProt Q02223 1-54, FITC labeled (site not stated))
T1 construct: Soluble labeled protein used to stain CAR-T cells; also called BCMA antigen protein; BCMA protein
T1 sequence (looked up): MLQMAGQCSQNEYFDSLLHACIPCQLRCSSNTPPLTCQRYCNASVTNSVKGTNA

B1: chimeric antigen receptor comprising humanized anti-BCMA single domain antibody BH60_V3, on CAR-T cells (other)
chain: EVQLVESGGGLVQPGGSLRLSCVVSGGIFTINDMAWVRQAPGKGLEWVAHISRSGSTYYRDSVKGRFTISRDNAKNSLYLQMNSLRAEDTAVYYCNSIDRPLSYGQGTLVTVSSTTTPAPRPPTPAPTIASQPLSLRPEACRPAAGGAVHTRGLDFACDIYIWAPLAGTCGVLLLSLVITLYCKRGRKKLLYIFKQPFMRPVQTTQEEDGCSCRFPEEEEGGCELRVKFSRSADAPAYQQGQNQLYNELNLGRREEYDVLDKRRGRDPEMGGKPRRKNPQEGLYNELQKDKMAEAYSEIGMKGERRRGKGHDGLYQGLSTATKDTYDALHMQALPPR
B2: chimeric antigen receptor comprising humanized anti-BCMA single domain antibody BH60_V1, on CAR-T cells (other)
chain: QVQLVESGGGLVQPGGSLRLSCAVSGGIFTINDMAWFRQAPGKQRELVAHISRSGSTYYRDSVKGRFTISRDNSKNTLYLQMNSLRAEDTATYYCNSIDRPLSYGQGTLVTVSTTTPAPRPPTPAPTIASQPLSLRPEACRPAAGGAVHTRGLDFACDIYIWAPLAGTCGVLLLSLVITLYCKRGRKKLLYIFKQPFMRPVQTTQEEDGCSCRFPEEEEGGCELRVKFSRSADAPAYQQGQNQLYNELNLGRREEYDVLDKRRGRDPEMGGKPRRKNPQEGLYNELQKDKMAEAYSEIGMKGERRRGKGHDGLYQGLSTATKDTYDALHMQALPPR
B3: chimeric antigen receptor comprising humanized anti-BCMA single domain antibody BH60_GKV1, on CAR-T cells (other)
chain: QVQLVESGGGLVQPGGSLRLSCVASGGIFTINDMAWFRQAPGKQRELVAHISRSGSTYYRDSVKGRFTISRDNAKNSLYLQMNSLRAEDTAVYYCNSIDRPLSYGQGTLVTVSTTTPAPRPPTPAPTIASQPLSLRPEACRPAAGGAVHTRGLDFACDIYIWAPLAGTCGVLLLSLVITLYCKRGRKKLLYIFKQPFMRPVQTTQEEDGCSCRFPEEEEGGCELRVKFSRSADAPAYQQGQNQLYNELNLGRREEYDVLDKRRGRDPEMGGKPRRKNPQEGLYNELQKDKMAEAYSEIGMKGERRRGKGHDGLYQGLSTATKDTYDALHMQALPPR
B4: chimeric antigen receptor comprising humanized anti-BCMA single domain antibody BH60_GKV2, on CAR-T cells (other)
chain: QVQLVESGGGLVQPGGSLRLSCAASGGIFTINDMAWFRQAPGKQRELVAHISRSGSTYYRDSVKGRFTISRDNAKNSLYLQMNSLRAEDTAVYYCNSIDRPLSYGQGTQVTVSTTTPAPRPPTPAPTIASQPLSLRPEACRPAAGGAVHTRGLDFACDIYIWAPLAGTCGVLLLSLVITLYCKRGRKKLLYIFKQPFMRPVQTTQEEDGCSCRFPEEEEGGCELRVKFSRSADAPAYQQGQNQLYNELNLGRREEYDVLDKRRGRDPEMGGKPRRKNPQEGLYNELQKDKMAEAYSEIGMKGERRRGKGHDGLYQGLSTATKDTYDALHMQALPPR
B5: chimeric antigen receptor comprising humanized anti-BCMA single domain antibody BH60_V6, on CAR-T cells (other)
chain: QVQLVESGGGLVQPGGSLRLSCVVSGGIFTINDMAWFRQAPGKQRELVAHISRSGSTYYRDFVKGRFTISRDNSKNTSYLQMNNLRAEDTATYYCNSIDRPLSYGQGTLVTVSTTTPAPRPPTPAPTIASQPLSLRPEACRPAAGGAVHTRGLDFACDIYIWAPLAGTCGVLLLSLVITLYCKRGRKKLLYIFKQPFMRPVQTTQEEDGCSCRFPEEEEGGCELRVKFSRSADAPAYQQGQNQLYNELNLGRREEYDVLDKRRGRDPEMGGKPRRKNPQEGLYNELQKDKMAEAYSEIGMKGERRRGKGHDGLYQGLSTATKDTYDALHMQALPPR
B6: chimeric antigen receptor comprising humanized anti-BCMA single domain antibody BH60_V5, on CAR-T cells (other)
chain: QVQLVESGGGLVQPGGSLRLSCVVSGGIFTINDMAWFRQAPGKQRELVAHISRSGSTYYRDFVKGRFTISRDNSKNTLYLQMNSLRAEDTATYYCNSIDRPLSYGQGTLVTVSTTTPAPRPPTPAPTIASQPLSLRPEACRPAAGGAVHTRGLDFACDIYIWAPLAGTCGVLLLSLVITLYCKRGRKKLLYIFKQPFMRPVQTTQEEDGCSCRFPEEEEGGCELRVKFSRSADAPAYQQGQNQLYNELNLGRREEYDVLDKRRGRDPEMGGKPRRKNPQEGLYNELQKDKMAEAYSEIGMKGERRRGKGHDGLYQGLSTATKDTYDALHMQALPPR
B7: chimeric antigen receptor comprising humanized anti-BCMA single domain antibody BH86_V2, on CAR-T cells (other)
chain: EVQLVESGGGLVKPGGSLRLSCAASGRAISSIVMAWVRQAPGKGLEWVASINRWGGTPYYSAPVKGRFTISRDDSKNTLYLQMNSLKTEDTAVYYCAAASTLDSGYDYWGQGTLVTVSSTTTPAPRPPTPAPTIASQPLSLRPEACRPAAGGAVHTRGLDFACDIYIWAPLAGTCGVLLLSLVITLYCKRGRKKLLYIFKQPFMRPVQTTQEEDGCSCRFPEEEEGGCELRVKFSRSADAPAYQQGQNQLYNELNLGRREEYDVLDKRRGRDPEMGGKPRRKNPQEGLYNELQKDKMAEAYSEIGMKGERRRGKGHDGLYQGLSTATKDTYDALHMQALPPR
B8: chimeric antigen receptor comprising humanized anti-BCMA single domain antibody BH86_V1, on CAR-T cells (other)
chain: QVQLVESGGGLVQAGESLRLSCAASGRAISSIVMAWWRQTPGAEREFVASINRWGGTPYYSDSVKGRFTISRDNSKNTLYLQMNSLRAEDTAVYYCAAASTLDSGYDYWGQGTLVTVSTTTPAPRPPTPAPTIASQPLSLRPEACRPAAGGAVHTRGLDFACDIYIWAPLAGTCGVLLLSLVITLYCKRGRKKLLYIFKQPFMRPVQTTQEEDGCSCRFPEEEEGGCELRVKFSRSADAPAYQQGQNQLYNELNLGRREEYDVLDKRRGRDPEMGGKPRRKNPQEGLYNELQKDKMAEAYSEIGMKGERRRGKGHDGLYQGLSTATKDTYDALHMQALPPR
B9: chimeric antigen receptor comprising humanized anti-BCMA single domain antibody BH86_GKV1, on CAR-T cells (other)
chain: QEVLVESGGGLVQPGGSLRLSCAASGRAISSIVMAWWRQTPGAEREFVASINRWGGTPYYSDSVKGRFTISRDHAKNTLYLQMNSLRAEDTAVYYCAAASTLDSGYDYWGHGTQVTVSTTTPAPRPPTPAPTIASQPLSLRPEACRPAAGGAVHTRGLDFACDIYIWAPLAGTCGVLLLSLVITLYCKRGRKKLLYIFKQPFMRPVQTTQEEDGCSCRFPEEEEGGCELRVKFSRSADAPAYQQGQNQLYNELNLGRREEYDVLDKRRGRDPEMGGKPRRKNPQEGLYNELQKDKMAEAYSEIGMKGERRRGKGHDGLYQGLSTATKDTYDALHMQALPPR
B10: chimeric antigen receptor comprising humanized anti-BCMA single domain antibody BH86_V4, on CAR-T cells (other)
chain: QVQLVESGGGLVQAGESLRLSCAASGRAISSIVMAWWRQTPGAEREFVASINRWGGTPYYSDSVKGRFTISRDNSKNTLYLQMNSLRAEDTAVYYCAAASTLDSGYDYWGHGTLVTVSTTTPAPRPPTPAPTIASQPLSLRPEACRPAAGGAVHTRGLDFACDIYIWAPLAGTCGVLLLSLVITLYCKRGRKKLLYIFKQPFMRPVQTTQEEDGCSCRFPEEEEGGCELRVKFSRSADAPAYQQGQNQLYNELNLGRREEYDVLDKRRGRDPEMGGKPRRKNPQEGLYNELQKDKMAEAYSEIGMKGERRRGKGHDGLYQGLSTATKDTYDALHMQALPPR
B11: chimeric antigen receptor comprising humanized anti-BCMA single domain antibody BH86_GKV2, on CAR-T cells (other)
chain: QEVLVESGGGLVQPGGSLRLSCAASGRAISSIVMAWWRQTPGAEREFVASINRWGGTPYYSDSVKGRFTISRDHAKNTLYLQMNSLKSADTAVYYCAAASTLDSGYDYWGPGTQVTVSTTTPAPRPPTPAPTIASQPLSLRPEACRPAAGGAVHTRGLDFACDIYIWAPLAGTCGVLLLSLVITLYCKRGRKKLLYIFKQPFMRPVQTTQEEDGCSCRFPEEEEGGCELRVKFSRSADAPAYQQGQNQLYNELNLGRREEYDVLDKRRGRDPEMGGKPRRKNPQEGLYNELQKDKMAEAYSEIGMKGERRRGKGHDGLYQGLSTATKDTYDALHMQALPPR
B12: chimeric antigen receptor comprising humanized anti-BCMA single domain antibody BH86_GKV3, on CAR-T cells (other)
chain: QEVLVESGGGLVQPGGSLRLSCAASGRAISSIVMAWWRQTPGAEREFVASINRWGGTPYYSDSVKGRFTISRDHAKNTLYLQMNSLKSADTAVYYCAAASTLDSGYDYWGQGTQVTVSTTTPAPRPPTPAPTIASQPLSLRPEACRPAAGGAVHTRGLDFACDIYIWAPLAGTCGVLLLSLVITLYCKRGRKKLLYIFKQPFMRPVQTTQEEDGCSCRFPEEEEGGCELRVKFSRSADAPAYQQGQNQLYNELNLGRREEYDVLDKRRGRDPEMGGKPRRKNPQEGLYNELQKDKMAEAYSEIGMKGERRRGKGHDGLYQGLSTATKDTYDALHMQALPPR
B13: chimeric antigen receptor comprising humanized anti-BCMA single domain antibody BH86_V6, on CAR-T cells (other)
chain: QVQLVESGGGLVQAGESLRLSCAASGRAISSIVMAWWRQTPGAEREFVASINRWGGTPYYSNSVKGRFAISRDNSKNTIHLQMNSLRSEDTAVYYCAAASTLDSGYDYWGHGTLVTVSTTTPAPRPPTPAPTIASQPLSLRPEACRPAAGGAVHTRGLDFACDIYIWAPLAGTCGVLLLSLVITLYCKRGRKKLLYIFKQPFMRPVQTTQEEDGCSCRFPEEEEGGCELRVKFSRSADAPAYQQGQNQLYNELNLGRREEYDVLDKRRGRDPEMGGKPRRKNPQEGLYNELQKDKMAEAYSEIGMKGERRRGKGHDGLYQGLSTATKDTYDALHMQALPPR

This experiment concerns the target T1, FITC labeled BCMA (acrobiosystem, Cat. …). Nature of the experiment: flow cytometry, CAR-T cells stained with FITC labeled BCMA. The protocol: After culturing at 37° C. and 5% CO₂ for 10 days, FITC labeled BCMA (acrobiosystem, Cat. No. BCA-HF254) was used for binding specific staining, and the ability of the corresponding CAR-T cells to specifically bind to the BCMA antigen protein was detected by flow cytometry, which also reflected the expression level of the CAR molecule.
(In flow cytometry, cells or beads pass a laser one at a time.)
B1: the binding result is recorded as “binds”.

Turning to B2, the binding result is on record as “binds”.

Consider B3, for which the binding result was “binds”.

With B4, the binding result is on record as “binds”.

With B5, the binding result was “binds”.

As for B6, the binding result was “binds”.

B7: the binding result was “binds”.

For the molecule B8, the binding result is “binds”.

As for B9, the binding result is given as “binds”.

Take B10: the binding result is “binds”.

Take B11: the binding result is recorded as “binds”.

With B12, the binding result is “binds”.

Turning to B13, the binding result was “binds”.
